Measured values as given in the supplement of paper PMC12667976.

B1: library; numbered along this chain (parent)
chain: MATDAALRRLLRLHRTEIAVAVDSAFPLLHALADHDVVPEDKFQETLHLKEKEGCPQAFHALLSWLLTQDSTAILDFWRVLFKDYNLERYGRLQPILDSFPKDVDLSQPRKGRKPPAVPKALVPPPRLPTKRKASEEARAAAPAALTPRGTASPGSQLKAKPPKKPESSAEQQRLPLGNGIQTMSASVQRAVAMSSGDVPGARGAVEGILIQQVFESGGSKKCIQVGGEFYTPSKFEDSGSGKNKARSSSGPKPLVRAKGAQGAAPGGGEARLGQQGSVPAPLALPSDPQLHQKNEDECAVCRDGGELICCDGCPRAFHLACLSPPLREIPSGTWRCSSCLQATVQEVQPRAEEPRPQEPPVETPLPPGLRSAGEEVRGPPGEPLAGMDTTLVYKHLPAPPSAAPLPGLDSSALHPLLCVGPEGQQNLAPGARCGVCGDGTDVLRCTHCAAAFHWRCHFPAGTSRPGTGLRCRSCSGDVTPAPVEGVLAPSPARLAPGPAKDDTASHEPALHRDDLESLLSEHTFDGILQWAIQSMARPAAPFPS

Variants of: B1
Test: AIRE transcriptional activation functional score (insulin promoter-GFP; nonsense median 0, synonymous median 1) (normalised score); higher = higher AIRE activity (more reporter activation)
Conditions: with insulin promoter-GFP reporter in HEK293
Outline: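 Flp-In T-REx HEK293 landing-pad cells carrying an insulin core promoter-GFP reporter received codon-optimized AIRE NNN-codon libraries (three regions) through Bxb1 recombinase. Sorting of mCherry+, BFP− integrants took place at day 7, followed by 7 days of expansion and tile-sequencing of top 10% GFP and unselected integrant populations. A functional score was derived from select versus non-select variant enrichment with wild type subtracted. Values from variants reaching 10 counts per million in non-select were set to nonsense median 0 and synonymous median 1 and averaged over biological replicates.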

AIRE transcriptional activation functional score: each site, then its substitutions
S506: C 1.39; A 1.36; D 1.11; R 0.768; Q 0.92; W 0.477; L 0.875; G 0.799; K 0.443; E 0.655; P 1.11; N 0.728; V 0.824; T 0.197; F 0.873; I 1.63; Y 1.42; H 1.08; M 0.671
S491: F 1.05; V 0.901; C 1.29; I 1.1; D 0.749; P 1.1; A 0.995; M 1.31; Y 1.35; E 1.06; N 0.925; H 1.42; K 0.437; T 0.571; Q 0.998; G 0.752; W 1.03; L 0.845; R 0.586
A493: N 1.04; E 0.985; L 1.09; H 1.46; T 0.878; F 1.17; Q 0.91; V 1.1; Y 1.13; M 1.19; S 1.29; W 0.996; K 0.774; I 1.04; R 1.15; G 1.15; P 0.631; D 0.802; C 1.13
A500: R 0.915; V 1.04; K 0.785; T 1.12; L 0.907; H 1.22; W 1.42; Q 1.34; G 0.758; I 1.1; M 0.733; Y 0.944; N 0.646; F 0.977; D 1.19; C 1.07; E 0.98; P 0.844; S 1.17
A505: M 0.663; S 0.985; F 0.703; L 0.848; G 0.337; C 0.52; V 0.997; I 1.09; T -0.258; E 0.669; D 0.657; H -0.421; R 0.832; Y 1.59; K 0.78; P 1.01
L495: Y 1.35; V 1.07; H 1.23; D 1.68; F 1.18; I 1.22; E 1; Q 0.974; R 0.848; M 0.186; K 0.745; A 1.42; T 0.948; G 1.05; P 0.262; C 0.97; S 0.995
D503: S 0.908; H 0.851; V 0.937; E 0.774; Q 0.845; N 0.852; F 0.724; C 0.896; Y 1.14; G 0.835; L 1; I 0.789; A 0.958; T 1.41; P 0.73; R 0.543; K 0.372
P497: T 1.09; C 1.28; E 0.495; K 0.828; L 1.34; Y 1.1; R 0.646; N 1.05; I 1.13; G 1.29; M 1.19; D 0.292; Q 1.02; F 1.03; S 0.852; W 0.669; A 1.16; V 1.19; H 0.871
P492: N 1.18; K 0.595; S 1.03; V 1.07; A 0.732; F 1.04; G 1.01; W 0.687; D -0.0101; I 1.13; Y 0.427; L 1.02; R 0.779; H 0.521; Q 0.812; E 0.938; T 1.31; M 1.76; C 0.756
P490: I 1.17; K 1.17; S 1.11
